{"source": "patent US10517925B2", "about": "“Composition comprising KA11 polypeptide or gene encoding the same for inhibiting angiogenesis, and use thereof” (SEOUL NATIONAL UNIVERSITY R & DB FOUNDATION, priority 2015, dated 2019)", "molecules": {"B1": {"name": "PDGF-bb: typical angiogenic factor (cytokine) (protein, UniProt P01127 82-190, looked up)", "Platelet-derived growth …": "SLGSLTIAEPAMIAECKTRTEVFEISRRLIDRTNANFLVWPPCVEVQRCSGCCNNRNVQCRPTQVQLRPVQVRKIEIVRKKPIFKKATVTLEDHLACKCETVAAARPVT", "modifications": "homodimer"}, "B2": {"name": "KAI1 protein: KAI1(CD82) polypeptide, human-derived amino acid sequence of SEQ ID NO: 1 or mouse-derived SEQ ID NO: 2 (protein)", "chain": "MGAGCVKVTKYFLFLFNLLFFILGAVILGFGVWILADKNSFISVLQTSSSSLQVGAYVFIGVGAITIVMGFLGCIGAVNEVRCLLGLYFVFLLLILIAQVTVGVLFYFNADKLKKEMGNTVMDIIRNYTANATSSREEAWDYVQAQVKCCGWVSHYNWTENEELMGFTKTTYPCSCEKIKEEDNQLIVKKGFCEADNSTVSENNPEDWPVNTEGCMEKAQAWLQENFGILLGVCAGVAVIELLGLFLSICLCRYIHSEDYSKVPKY"}}, "key": {"[1]": {"system": "KAI1 expression in 10T1/2", "assay": "blocking of the cytokine-induced decrease in KAI1 expression of 10T1/2 by inhibitor pre-treatment", "type": "cell-based, mouse", "settings": "10T1/2, 50 μM methylation inhibitor, then cytokine (VEGF-A, bFGF, PDGF-bb)", "experimental": "Before 10T1/2 was treated with 40 ng/ml of a cytokine (VEGF-A, bFGF or PDGF-bb) selected in Example 8-1, a cytokine receptor inhibitor was treated beforehand. To this end, VEGF-A- and PDGF-bb-treated groups were treated with a tyrosine kinase inhibitor named SU11248, and a bFGF-treated group was pre-treated with a tyrosine kinase inhibitor named PD173074 for 2 hours, treated with 40 ng/ml of each cytokine (VEGF-A, bFGF, and PDGF-bb) as an angiogenic factor for 24 hours, and then harvested to confirm KAI1 expression through RT-qPCR and Western blotting, and the result is shown in FIGS. 29A and 29B.\nTo confirm signaling of the decrease in KAI1 expression in 10T1/2 by a cytokine, RT-qPCR and Western blotting were used to confirm whether the decrease in KAI1 expression in 10T1/2 by a cytokine was blocked by treating 10T1/2 with a signal molecule inhibitor (a Src, Pkc, TGF-β, MAPK, AKT, p53. or JAK inhibitor) before cytokine stimulation, and the result is shown in FIGS. 35 to 38.\n10T1/2 was treated with 50 μM of a methylation inhibitor (5-azacytidine), and then treated with each cytokine (VEGF-A, bFGF, and PDGF-bb), which is an angiogenic factor, to confirm KAI1 expression, and the result is shown in FIG. 40."}, "[2]": {"system": "KAI1 expression in 10T1/2", "assay": "KAI1 expression of 10T1/2 treated with angiogenic cytokines (RT-qPCR, Western blotting, immunostaining)", "type": "cell-based, mouse", "settings": "for KAI1 expression: 10T1/2, 40 ng/ml cytokine, until 72 hours; for KAI1 expression after removal of the stimulant: 10T1/2 stimulated 24 hours, then fresh culture media", "experimental": "That is, the change in KAI1 expression according to time (24 hrs, 48 hrs or 72 hrs) after 10T1/2 was treated with 40 ng/ml of each cytokine (VEGF-A, bFGF or PDGF-bb) was identified through RT-qPCR, Western blotting and immunostaining, and thus the results are shown in FIGS. 31A and 31B and 32. Here, each group of 10T1/2 was treated with 40 ng/ml of each cytokine (VEGF-A, bFGF, and PDGF-bb) as an angiogenic factor and cultured in RPMI 1640 HEPES supplemented with 10% (v/v) fetal bovine serum (FBS) and 1% antibiotics-antimycotics for up to 72 hours without change in a culture medium.\nAfter FGF or PDGF stimulation was given to 10T1/2, 24 hours later, the media was changed with fresh culture media (general culture media), and then RT-qPCR and Western blotting were conducted to confirm whether there was a change in the decreased expression of KAI1. […] From the result, it can be seen that the decrease in KAI1 expression was reversible."}, "[3]": {"system": "retinal angiogenesis", "assay": "retinal disease model mouse, injection into the orbit", "type": "in vivo", "settings": "injected into the orbit of model mouse, immunofluorescence, compared with control (not treated)", "experimental": "Retinal diseases such as diabetic retinopathy and central serous (chorio)retinopathy are diseases of the loss of eyesight as vessel permeability is increased by a VEGF, body fluids gather around the retina (macular edema), and pathological angiogenesis occur.\nA KAI1 protein was injected into the orbit of a model mouse with such a disease, and a degree of angiogenesis inhibition was compared with a control (not treated)."}, "[4]": {"system": "prostate cancer cell line (PC-3)", "assay": "PC-3 matrigel subcutaneous tumor mass formation in mice", "type": "in vivo, mouse", "settings": "PC-3 with matrigel subcutaneously in mice, compared to vehicle", "source_text": "More specifically, a prostate cancer cell line (PC-3) was mixed with a matrigel and subcutaneously injected into mice, and then tumor mass formation was observed and compared per experimental group. […] In addition, it can be confirmed that tumor mass was smaller in a group injected with a supernatant of KAI1 O/E 10T1/2 than in a group injected with a supernatant of mock 10T1/2. After the tumor mass obtained in the above-mentioned experiment was fixed with PFA, the cross-section was formed into sections, and a degree of angiogenesis per experimental group was determined by IF. Antibodies used herein were BS-1 Lectin (EC marker, 488 fluorescence), α-SMA (Pericyte marker, 555 fluorescence), and DAPI (nucleus marker, 405 fluorescence)."}, "[5]": {"system": "MS-1 / 10T1/2 hybrid spheroid", "assay": "EC-pericyte hybrid spheroid sprouting in collagen", "type": "cell-based, mouse", "settings": "culture media supplemented with KAI1 protein", "source_text": "Here, a mouse endothelial cell line (MS-1) was used as ECs and 10T1/2 was used as pericytes. In addition, KAI1 was overexpressed using an adenovirus in pericytes. In the manufacture of the spheroid, a ratio of the number of each type of cell (EC:pericyte) was 2:1, and the total cell number was fixed at 3×10^3. As culture media used to grow the spheroids, 10% FBS and 1% antibiotics-antimycotics-containing Dulbecco's modified eagle medium (DMEM) was used. In addition, effective EC sprouting was induced by a treatment of 100 ng/ml of recombinant human VEGF.\nAfterwards, to verify an anticancer effect of a KAI1 protein treatment, B16 and an EC-pericyte hybrid spheroid were manufactured and embedded in collagen, and then a degree of vessel formation was observed by time. Here, a mouse endothelial cell line (MS-1) was used as ECs, and 10T1/2 was used as pericytes. In the manufacture of the spheroid, a ratio of the number of each type of cell (EC:pericyte) was 2:1, and the total cell number was fixed at 3×10^3. As culture media used to grow the spheroids, Dulbecco's modified eagle medium (DMEM) supplemented with 10% FBS and 1% antibiotics-antimycotics and a KAI1 protein was used. As a result, as shown in FIGS. 50A and 50B and 51, it can be confirmed that the sprouting of the KAI1 protein was inhibited in the spheroids. Therefore, an anticancer effect of the KAI1 protein was able to be expected."}, "[6]": {"system": "mouse cornea", "assay": "mouse cornea micropocket assay", "type": "in vivo", "settings": "pellet containing both cytokine and protein, 10 days, similar to vehicle", "experimental": "Based on the above-described in vitro experiment, a mouse cornea micropocket assay was performed to confirm whether angiogenesis was actually regulated by in vivo regulation of the KAI1 expression of pericytes. After a pocket formed by mixing cytokine, sucralfate and poly-hema (from which the cytokine was slowly secreted little by little) was manufactured and added to the mouse cornea, a degree of angiogenesis per experimental group was examined for 10 days. As a result, as shown in FIGS. 47A and 47B, it can be confirmed that, compared to a vehicle, angiogenesis in the mouse cornea injected with a pellet containing only a cytokine was added was much increased."}}, "note": "Entries after “also recorded” stand apart in the source; their conditions may differ."}
{"molecule": "Nc1ncn([C@@H]2O[C@H](CO)[C@@H](O)[C@H]2O)c(=O)n1", "note": "[5-azacytidine]", "values": [{"measurement": "KAI1 gene expression", "setting": "[1]", "value": "not decreased"}]}
{"molecule": "bFGF: typical angiogenic factor (cytokine)", "values": [{"measurement": "KAI1 expression", "setting": "[2]", "value": "continuously decreased"}, {"measurement": "KAI1 expression after removal of the stimulant", "setting": "[2]", "value": "recovered again"}]}
{"molecule": "B1", "values": [{"measurement": "KAI1 expression", "setting": "[2]", "value": "continuously decreased"}, {"measurement": "KAI1 expression after removal of the stimulant", "setting": "[2]", "value": "recovered again"}]}
{"molecule": "B2", "values": [{"measurement": "angiogenesis in the presence of VEGF", "setting": "[3]", "value": "angiogenesis was inhibited; also recorded: inhibition of angiogenesis"}, {"measurement": "tumor mass", "setting": "[4]", "value": "smaller"}, {"measurement": "sprouting of B16 and EC-pericyte hybrid spheroids", "setting": "[5]", "value": "inhibited"}, {"measurement": "angiogenesis in the mouse cornea", "setting": "[6]", "value": "no angiogenesis"}]}
